According to publication PMC9482650, “Quantitative fragmentomics allow affinity mapping of interactomes” (Nature Communications, 2022):

Legend:
Assay in all cases: holdup assay
Parameters in all cases: key: below the threshold = too weak to quantify, mostly under pKd 3.1 to 4
APBA2_1, Q99767 = molecular target: T1, APBA2_1, Q99767
T1 sequence (Q99767 563-664, limits assumed, looked up): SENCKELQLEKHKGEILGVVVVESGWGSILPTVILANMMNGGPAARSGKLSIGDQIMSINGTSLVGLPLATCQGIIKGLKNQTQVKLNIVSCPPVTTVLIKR

PDZD2_2, O15018 = molecular target: T2, PDZD2_2, O15018
T2 sequence (O15018 329-429, limits assumed, looked up): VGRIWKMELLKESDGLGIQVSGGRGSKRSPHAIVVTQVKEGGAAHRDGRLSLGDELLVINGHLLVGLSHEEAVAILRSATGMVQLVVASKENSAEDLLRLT

LAP2, Q96RT1 = molecular target: LAP2, Q96RT1
DLG5_1, Q8TDM6 = molecular target: DLG5_1, Q8TDM6
DLG2_3, Q15700 = molecular target: DLG2_3, Q15700
AHNAK1, Q09666 = molecular target: AHNAK1, Q09666
MPP6, Q9NZW5 = molecular target: T3, MPP6, Q9NZW5
T3 sequence (Q9NZW5 125-219, limits assumed, looked up): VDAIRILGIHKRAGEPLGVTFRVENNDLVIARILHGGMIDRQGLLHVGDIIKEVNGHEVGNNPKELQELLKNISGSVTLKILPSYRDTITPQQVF

FRMPD2_1, Q68DX3 = molecular target: FRMPD2_1, Q68DX3
DLG3_1, Q92796 = molecular target: T4, DLG3_1, Q92796
T4 sequence (Q92796 125-227, limits assumed, looked up): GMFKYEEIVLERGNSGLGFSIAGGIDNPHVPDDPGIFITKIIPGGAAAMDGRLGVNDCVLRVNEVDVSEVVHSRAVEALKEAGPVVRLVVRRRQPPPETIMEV

PTPN13_1, Q12923 = molecular target: T5, PTPN13_1, Q12923
T5 sequence (Q12923 1088-1188, limits assumed, looked up): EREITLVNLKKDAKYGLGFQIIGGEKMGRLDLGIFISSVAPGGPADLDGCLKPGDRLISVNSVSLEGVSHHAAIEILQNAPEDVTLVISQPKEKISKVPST

PARD3_3, Q8TEW0 = molecular target: PARD3_3, Q8TEW0
FRMPD2_3, Q68DX3 = molecular target: FRMPD2_3, Q68DX3
SNX27, Q96L92 = molecular target: SNX27, Q96L92
GRIP2_6, Q9C0E4 = molecular target: GRIP2_6, Q9C0E4
LRRC7, Q96NW7 = molecular target: T6, LRRC7, Q96NW7
T6 sequence (Q96NW7 1440-1537, limits assumed, looked up): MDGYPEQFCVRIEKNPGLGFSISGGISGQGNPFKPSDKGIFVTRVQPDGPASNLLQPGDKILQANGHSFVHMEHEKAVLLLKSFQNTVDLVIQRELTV

ARHGEF11, O15085 = molecular target: T7, ARHGEF11, O15085
T7 sequence (O15085 42-136, limits assumed, looked up): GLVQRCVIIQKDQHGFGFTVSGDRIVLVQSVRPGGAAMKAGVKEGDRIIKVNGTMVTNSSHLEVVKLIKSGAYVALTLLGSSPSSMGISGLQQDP

DVL3, Q92997 = molecular target: T8, DVL3, Q92997
T8 sequence (Q92997 244-331, limits assumed, looked up): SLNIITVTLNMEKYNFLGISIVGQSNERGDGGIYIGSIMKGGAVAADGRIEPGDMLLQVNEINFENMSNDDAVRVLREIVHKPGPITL

IL16_4, Q14005 = molecular target: IL16_4, Q14005
HTRA2, O43464 = molecular target: HTRA2, O43464
MPP7, Q5T2T1 = molecular target: T9, MPP7, Q5T2T1
T9 sequence (Q5T2T1 134-230, limits assumed, looked up): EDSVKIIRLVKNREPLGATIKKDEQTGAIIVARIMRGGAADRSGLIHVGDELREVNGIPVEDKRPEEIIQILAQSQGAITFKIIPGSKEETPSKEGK

RAPGEF6, Q8TEU7 = molecular target: T10, RAPGEF6, Q8TEU7
T10 sequence (Q8TEU7 525-625, limits assumed, looked up): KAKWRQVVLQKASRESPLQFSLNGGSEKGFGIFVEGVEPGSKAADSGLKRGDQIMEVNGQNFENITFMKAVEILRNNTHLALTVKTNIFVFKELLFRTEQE

SNTB1, Q13884 = molecular target: T11, SNTB1, Q13884
T11 sequence (Q13884 107-205, limits assumed, looked up): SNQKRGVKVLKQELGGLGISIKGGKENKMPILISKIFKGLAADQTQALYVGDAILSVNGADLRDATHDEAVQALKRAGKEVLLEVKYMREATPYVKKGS

SNTA1, Q13424 = molecular target: T12, SNTA1, Q13424
T12 sequence (Q13424 82-180, limits assumed, looked up): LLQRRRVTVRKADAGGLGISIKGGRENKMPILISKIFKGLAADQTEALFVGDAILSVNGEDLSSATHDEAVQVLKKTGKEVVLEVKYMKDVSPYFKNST

MAGI2_6, Q86UL8 = molecular target: MAGI2_6, Q86UL8
APBA3_1, O96018 = molecular target: T13, APBA3_1, O96018
T13 sequence (O96018 389-490, limits assumed, looked up): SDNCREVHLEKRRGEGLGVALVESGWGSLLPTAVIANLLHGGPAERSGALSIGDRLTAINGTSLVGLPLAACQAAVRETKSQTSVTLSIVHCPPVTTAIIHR

[1] = plain residues with an end cap or a label only (N-terminal biotin on a linker: ado-ado)
[2] = plain residues with an end cap or a label only (N-terminal biotin on a linker: none)
[3] = plain residues with an end cap or a label only (N-terminal biotin on a linker: ttds)

LAP2, Q96RT1, sequence (Q96RT1 other isoform, or with tags, fused parts or gaps): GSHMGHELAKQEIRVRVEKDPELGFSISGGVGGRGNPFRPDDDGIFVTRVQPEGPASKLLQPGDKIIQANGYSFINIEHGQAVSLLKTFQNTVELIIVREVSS
FRMPD2_1, Q68DX3, sequence (Q68DX3 770-861): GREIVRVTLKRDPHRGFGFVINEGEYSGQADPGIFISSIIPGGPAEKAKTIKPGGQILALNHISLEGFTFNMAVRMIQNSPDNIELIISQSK
DLG5_1, Q8TDM6, sequence (Q8TDM6 617-713): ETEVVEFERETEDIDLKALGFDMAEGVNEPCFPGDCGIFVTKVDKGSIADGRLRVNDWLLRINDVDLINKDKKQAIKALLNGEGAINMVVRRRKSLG
GRIP2_6, Q9C0E4, sequence (Q9C0E4 648-740): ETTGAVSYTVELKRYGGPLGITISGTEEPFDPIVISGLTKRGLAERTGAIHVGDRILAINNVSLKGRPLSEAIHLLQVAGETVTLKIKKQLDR
FRMPD2_3, Q68DX3, sequence (Q68DX3 1073-1166): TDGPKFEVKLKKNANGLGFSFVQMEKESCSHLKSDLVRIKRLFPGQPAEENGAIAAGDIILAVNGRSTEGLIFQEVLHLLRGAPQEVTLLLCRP
IL16_4, Q14005, sequence (Q14005 1229-1329): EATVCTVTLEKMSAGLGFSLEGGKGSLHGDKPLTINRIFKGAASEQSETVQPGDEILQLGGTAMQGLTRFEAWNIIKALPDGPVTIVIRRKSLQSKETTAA
MAGI2_6, Q86UL8, sequence (Q86UL8 1141-1229): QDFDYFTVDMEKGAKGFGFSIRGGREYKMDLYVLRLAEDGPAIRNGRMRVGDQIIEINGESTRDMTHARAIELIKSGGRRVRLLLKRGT
PARD3_3, Q8TEW0, sequence (Q8TEW0 582-685): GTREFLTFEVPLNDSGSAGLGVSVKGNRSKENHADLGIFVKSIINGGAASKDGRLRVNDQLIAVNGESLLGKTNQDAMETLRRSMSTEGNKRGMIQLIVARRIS
HTRA2, O43464, sequence (O43464 355-458): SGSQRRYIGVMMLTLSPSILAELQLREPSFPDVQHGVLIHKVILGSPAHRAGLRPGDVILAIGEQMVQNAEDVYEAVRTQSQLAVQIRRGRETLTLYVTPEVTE

Binder: LHLHGTGIQV [EPHA7, Q15375]
- pKd (APBA2_1, Q99767; [1]): below the threshold
- pKd (PDZD2_2, O15018; [1]): below the threshold
- pKd (LAP2, Q96RT1; [1]): 3.63
- pKd (DLG5_1, Q8TDM6; [1]): below the threshold
- pKd (DLG2_3, Q15700; [1]): below the threshold
- pKd (AHNAK1, Q09666; [1]): below the threshold
- pKd (MPP6, Q9NZW5; [1]): 3.88
- pKd (FRMPD2_1, Q68DX3; [1]): 5.03
- pKd (DLG3_1, Q92796; [1]): below the threshold
- pKd (PTPN13_1, Q12923; [1]): below the threshold
- pKd (PARD3_3, Q8TEW0; [1]): 3.64
- pKd (FRMPD2_3, Q68DX3; [1]): below the threshold
- pKd (SNX27, Q96L92; [1]): 3.53
- pKd (GRIP2_6, Q9C0E4; [1]): 3.81
- pKd (LRRC7, Q96NW7; [1]): below the threshold
- pKd (ARHGEF11, O15085; [1]): 4.51
- pKd (DVL3, Q92997; [1]): below the threshold
- pKd (IL16_4, Q14005; [1]): below the threshold
- pKd (HTRA2, O43464; [1]): below the threshold
- pKd (MPP7, Q5T2T1; [1]): below the threshold
- pKd (RAPGEF6, Q8TEU7; [1]): below the threshold
- pKd (SNTB1, Q13884; [1]): below the threshold
- pKd (SNTA1, Q13424; [1]): below the threshold
- pKd (MAGI2_6, Q86UL8; [1]): below the threshold
- pKd (APBA3_1, O96018; [1]): below the threshold

Binder: DSKPPLPPDEWV [MERS-E, K9N5R3]
- pKd (APBA2_1, Q99767; [2]): below the threshold
- pKd (PDZD2_2, O15018; [2]): 5.11
- pKd (LAP2, Q96RT1; [2]): 5.24
- pKd (DLG5_1, Q8TDM6; [2]): below the threshold
- pKd (DLG2_3, Q15700; [2]): below the threshold
- pKd (AHNAK1, Q09666; [2]): below the threshold
- pKd (MPP6, Q9NZW5; [2]): below the threshold
- pKd (FRMPD2_1, Q68DX3; [2]): below the threshold
- pKd (DLG3_1, Q92796; [2]): below the threshold
- pKd (PTPN13_1, Q12923; [2]): below the threshold
- pKd (PARD3_3, Q8TEW0; [2]): 4.07
- pKd (FRMPD2_3, Q68DX3; [2]): 3.53
- pKd (SNX27, Q96L92; [2]): 4.56
- pKd (GRIP2_6, Q9C0E4; [2]): below the threshold
- pKd (LRRC7, Q96NW7; [2]): 4.4
- pKd (ARHGEF11, O15085; [2]): 3.91
- pKd (DVL3, Q92997; [2]): 3.78
- pKd (IL16_4, Q14005; [2]): below the threshold
- pKd (HTRA2, O43464; [2]): 4.2
- pKd (MPP7, Q5T2T1; [2]): below the threshold
- pKd (RAPGEF6, Q8TEU7; [2]): below the threshold
- pKd (SNTB1, Q13884; [2]): 3.8
- pKd (SNTA1, Q13424; [2]): below the threshold
- pKd (MAGI2_6, Q86UL8; [2]): 4.75
- pKd (APBA3_1, O96018; [2]): 3.65

Binder: TGDTLEKFVEGL [CBP, Q92793]
- pKd (APBA2_1, Q99767; [3]): below the threshold
- pKd (PDZD2_2, O15018; [3]): below the threshold
- pKd (LAP2, Q96RT1; [3]): below the threshold
- pKd (DLG5_1, Q8TDM6; [3]): below the threshold
- pKd (DLG2_3, Q15700; [3]): below the threshold
- pKd (AHNAK1, Q09666; [3]): below the threshold
- pKd (MPP6, Q9NZW5; [3]): below the threshold
- pKd (FRMPD2_1, Q68DX3; [3]): below the threshold
- pKd (DLG3_1, Q92796; [3]): below the threshold
- pKd (PTPN13_1, Q12923; [3]): below the threshold
- pKd (PARD3_3, Q8TEW0; [3]): below the threshold
- pKd (FRMPD2_3, Q68DX3; [3]): below the threshold
- pKd (SNX27, Q96L92; [3]): below the threshold
- pKd (GRIP2_6, Q9C0E4; [3]): below the threshold
- pKd (LRRC7, Q96NW7; [3]): below the threshold
- pKd (ARHGEF11, O15085; [3]): below the threshold
- pKd (DVL3, Q92997; [3]): below the threshold
- pKd (IL16_4, Q14005; [3]): below the threshold
- pKd (HTRA2, O43464; [3]): below the threshold
- pKd (MPP7, Q5T2T1; [3]): below the threshold
- pKd (RAPGEF6, Q8TEU7; [3]): below the threshold
- pKd (SNTB1, Q13884; [3]): below the threshold
- pKd (SNTA1, Q13424; [3]): below the threshold
- pKd (MAGI2_6, Q86UL8; [3]): below the threshold
- pKd (APBA3_1, O96018; [3]): below the threshold
